Laboratory results: the Human Domainome abundance scans (Beltran et al. 2025)
± gives the uncertainty stated by the source.

B1: Cell division cycle and apoptosis regulator protein 1, residues 625 to 674; numbered along this chain, Q8IX12 (parent)
chain: ISTPTHWSKLDPKTMKVNDLRKELESRALSSKGLKSQLIARLTKQLKVEE

Variants of: B1
Experiment: abundance fitness (aPCA) (normalised: wild type 0, dead -1); higher = more abundant; growth selection in yeast, the domain comes from the species named
Details: Homo sapiens

Question: With ISTPTHWSKLDPKTMKVNDLRKELESRALSSKGLKSQLWARLTKQLKVEE [I39W] as the variant, how does the abundance fitness read?
Answer: -0.573 ± 0.054

Question: Which abundance fitness does the source give for ISTPTHWSKLDPKTMKVNDLRKELESRALSSKGLKSQLCARLTKQLKVEE [I39C] here?
Answer: -0.059 ± 0.062

Question: With ISTPTHWSKLDPKTMKVNDLRKELESRALSSKGLKSQLEARLTKQLKVEE [I39E] as the variant, how does the abundance fitness read?
Answer: -0.102 ± 0.047

Question: Which abundance fitness does the source give for ISTPTHWSKLDPKTMKVNDLRKELESRALSSKGLKSQLTARLTKQLKVEE [I39T] here?
Answer: -0.049 ± 0.029

Question: For ISTPTHWSKLDPKTMKVNDLRKELESRALSSKGLKSQLFARLTKQLKVEE [I39F], which abundance fitness is on record?
Answer: -0.518 ± 0.093

Question: For ISTPTHWSKLDPKTMKVNDLRKELESRALSSKGLKSQLSARLTKQLKVEE [I39S], which abundance fitness is on record?
Answer: -0.205 ± 0.048

Question: For ISTPTHWSKLDPKTMKVNDLRKELESRALSSKGLKSQLAARLTKQLKVEE [I39A], which abundance fitness is on record?
Answer: -0.145 ± 0.042

Question: Which abundance fitness does the source give for ISTPTHWSKLDPKTMKVNDLRKELESRALSSKGLKSQLQARLTKQLKVEE [I39Q] here?
Answer: -0.102 ± 0.062

Question: Which abundance fitness does the source give for ISTPTHWSKLDPKTMKVNDLRKELESRALSSKGLKSQLDARLTKQLKVEE [I39D] here?
Answer: -0.266 ± 0.035

Question: Which abundance fitness does the source give for ISTPTHWSKLDPKTMKVNDLRKELESRALSSKGLKSQLMARLTKQLKVEE [I39M] here?
Answer: -0.1 ± 0.039

Question: Which abundance fitness does the source give for ISTPTHWSKLDPKTMKVNDLRKELESRALSSKGLKSQLLARLTKQLKVEE [I39L] here?
Answer: -0.183 ± 0.04

Question: With ISTPTHWSKLDPKTMKVNDLRKELESRALSSKGLKSQLYARLTKQLKVEE [I39Y] as the variant, how does the abundance fitness read?
Answer: -0.279 ± 0.042

Question: Which abundance fitness does the source give for ISTPTHWSKLDPKTMKVNDLRKELESRALSSKGLKSQLVARLTKQLKVEE [I39V] here?
Answer: 0.022 ± 0.046

Question: With ISTPTHWSKLDPKTMKVNDLRKELESRALSSKGLKSQLNARLTKQLKVEE [I39N] as the variant, how does the abundance fitness read?
Answer: -0.26 ± 0.049

Question: Which abundance fitness does the source give for ISTPTHWSKLDPKTMKVNDLRKELESRALSSKGLKSQLIARLMKQLKVEE [T43M] here?
Answer: -0.094 ± 0.039

Question: For ISTPTHWSKLDPKTMKVNDLRKELESRALSSKGLKSQLIARLEKQLKVEE [T43E], which abundance fitness is on record?
Answer: -0.117 ± 0.037

Question: With ISTPTHWSKLDPKTMKVNDLRKELESRALSSKGLKSQLIARLCKQLKVEE [T43C] as the variant, how does the abundance fitness read?
Answer: -0.071 ± 0.042

Question: For ISTPTHWSKLDPKTMKVNDLRKELESRALSSKGLKSQLIARLDKQLKVEE [T43D], which abundance fitness is on record?
Answer: -0.097 ± 0.058

Question: With ISTPTHWSKLDPKTMKVNDLRKELESRALSSKGLKSQLIARLLKQLKVEE [T43L] as the variant, how does the abundance fitness read?
Answer: -0.043 ± 0.031

Question: Which abundance fitness does the source give for ISTPTHWSKLDPKTMKVNDLRKELESRALSSKGLKSQLIARLNKQLKVEE [T43N] here?
Answer: -0.021 ± 0.062

Question: For ISTPTHWSKLDPKTMKVNDLRKELESRALSSKGLKSQLIARLKKQLKVEE [T43K], which abundance fitness is on record?
Answer: 0.148 ± 0.055

Question: With ISTPTHWSKLDPKTMKVNDLRKELESRALSSKGLKSQLIARLHKQLKVEE [T43H] as the variant, how does the abundance fitness read?
Answer: -0.105 ± 0.035

Question: For ISTPTHWSKLDPKTMKVNDLRKELESRALSSKGLKSQLIARLIKQLKVEE [T43I], which abundance fitness is on record?
Answer: -0.05 ± 0.06

Question: Which abundance fitness does the source give for ISTPTHWSKLDPKTMKVNDLRKELESRALSSKGLKSQLIARLAKQLKVEE [T43A] here?
Answer: -0.01 ± 0.047

Question: Which abundance fitness does the source give for ISTPTHWSKLDPKTMKVNDLRKELESRALSSKGLKSQLIARVTKQLKVEE [L42V] here?
Answer: -0.634 ± 0.049

Question: With ISTPTHWSKLDPKTMKVNDLRKELESRALSSKGLKSQLIARFTKQLKVEE [L42F] as the variant, how does the abundance fitness read?
Answer: -0.56 ± 0.073

Question: Which abundance fitness does the source give for ISTPTHWSKLDPKTMKVNDLRKELESRALSSKGLKSQLIARNTKQLKVEE [L42N] here?
Answer: -0.515 ± 0.049

Question: Which abundance fitness does the source give for ISTPTHWSKLDPKTMKVNDLRKELESRALSSKGLKSQLIARKTKQLKVEE [L42K] here?
Answer: -0.677 ± 0.055

Question: With ISTPTHWSKLDPKTMKVNDLRKELESRALSSKGLKSQLIARSTKQLKVEE [L42S] as the variant, how does the abundance fitness read?
Answer: -0.563 ± 0.04

Question: With ISTPTHWSKLDPKTMKVNDLRKELESRALSSKGLKSQLIARWTKQLKVEE [L42W] as the variant, how does the abundance fitness read?
Answer: -0.929 ± 0.095

Question: With ISTPTHWSKLDPKTMKVNDLRKELESRALSSKGLKSQLIARRTKQLKVEE [L42R] as the variant, how does the abundance fitness read?
Answer: -0.733 ± 0.038

Question: For ISTPTHWSKLDPKTMKVNDLRKELESRALSSKGLKSQLIARHTKQLKVEE [L42H], which abundance fitness is on record?
Answer: -0.509 ± 0.11

Question: For ISTPTHWSKLDPKTMKVNDLRKELESRALSSKGLKSQLIARPTKQLKVEE [L42P], which abundance fitness is on record?
Answer: -0.472 ± 0.076

Question: For ISTPTHWSKLDPKTMKVNDLRKELESRALSSKGLKSQLIARQTKQLKVEE [L42Q], which abundance fitness is on record?
Answer: -0.505 ± 0.052

Question: With ISTPTHWSKLDPKTMKVNDLRKELESRALSSKGLKSQLIARGTKQLKVEE [L42G] as the variant, how does the abundance fitness read?
Answer: -0.516 ± 0.039

Question: Which abundance fitness does the source give for ISTPTHWSKLDPKTMKVNDLRKELESRALSSKGLKSQLIARETKQLKVEE [L42E] here?
Answer: -0.547 ± 0.053

Question: Which abundance fitness does the source give for ISTPTHWSKLDPKTMKVNDLRKELESRALSSKGLKSQLIARCTKQLKVEE [L42C] here?
Answer: -0.795 ± 0.12

Question: For ISTPTHWSKLDPKTMKVNDLRKELESRALSSKGLKSQLIARITKQLKVEE [L42I], which abundance fitness is on record?
Answer: -0.231 ± 0.041

Question: For ISTPTHWSKLDPKTMKVNDLRKELESRALSSKGLKSQLIARTTKQLKVEE [L42T], which abundance fitness is on record?
Answer: -0.585 ± 0.053

Question: For ISTPTHWSKLDPKTMKVNDLRKELESRALSSKGLKSQLIARATKQLKVEE [L42A], which abundance fitness is on record?
Answer: -0.662 ± 0.072

Question: For ISTPTHWSKLDPKTMKVNDLRKELESRALSSKGLKSQLIARDTKQLKVEE [L42D], which abundance fitness is on record?
Answer: -0.493 ± 0.043

Question: With ISTPTHWSKLDPKTMKVNDLRKELESRALSSKGLKSQLIARYTKQLKVEE [L42Y] as the variant, how does the abundance fitness read?
Answer: -0.845 ± 0.081

Question: With ISTPTHWSKLDPKTMKVNDLRKELESRALSSKGLKSQLIARMTKQLKVEE [L42M] as the variant, how does the abundance fitness read?
Answer: -0.206 ± 0.057

Question: Which abundance fitness does the source give for ISTPTHWSKLDPKTMKVNDLRKELESRALSSKGLKSRLIARLTKQLKVEE [Q37R] here?
Answer: -0.168 ± 0.032

Question: For ISTPTHWSKLDPKTMKVNDLRKELESRALSSKGLKSLLIARLTKQLKVEE [Q37L], which abundance fitness is on record?
Answer: -0.178 ± 0.03

Question: Which abundance fitness does the source give for ISTPTHWSKLDPKTMKVNDLRKELESRALSSKGLKSMLIARLTKQLKVEE [Q37M] here?
Answer: -0.042 ± 0.034

Question: For ISTPTHWSKLDPKTMKVNDLRKELESRALSSKGLKSWLIARLTKQLKVEE [Q37W], which abundance fitness is on record?
Answer: -0.459 ± 0.054

Question: With ISTPTHWSKLDPKTMKVNDLRKELESRALSSKGLKSSLIARLTKQLKVEE [Q37S] as the variant, how does the abundance fitness read?
Answer: -0.061 ± 0.035

Question: With ISTPTHWSKLDPKTMKVNDLRKELESRALSSKGLKSYLIARLTKQLKVEE [Q37Y] as the variant, how does the abundance fitness read?
Answer: -0.274 ± 0.042

Question: Which abundance fitness does the source give for ISTPTHWSKLDPKTMKVNDLRKELESRALSSKGLKSTLIARLTKQLKVEE [Q37T] here?
Answer: -0.093 ± 0.032

Question: Which abundance fitness does the source give for ISTPTHWSKLDPKTMKVNDLRKELESRALSSKGLKSPLIARLTKQLKVEE [Q37P] here?
Answer: -0.231 ± 0.054

Question: Which abundance fitness does the source give for ISTPTHWSKLDPKTMKVNDLRKELESRALSSKGLKSVLIARLTKQLKVEE [Q37V] here?
Answer: 0.002 ± 0.033
